Laboratory results taken from article PMC5727187, “Insights into the structure and assembly of a bacterial cellulose secretion system” (Nature Communications, 2017).

Experiments:
[1] = target: the molecule itself; assay: negative-stain electron microscopy; Inner membrane subcomplex purified from BL21 (DE3) expressing bcs^HisRQA^HA-FLAGB-pCDF-Duet; reconstruction at 21.1 Å
[2] = target: the molecule itself; assay: negative-stain electron microscopy; Bcs macrocomplex purified from E. coli 1094 bcsA^HA-FLAG 2K7, GraFix cross-linked in the gradient; non-symmetrized reconstruction at 16.7 Å

Protein	stoichiometry N [1]	stoichiometry N [2]
BcsB (recombinant, BL21) (natural protein, E. coli 1094, UniProt P37652 26-779, looked up, BcsB, amplified from genomic DNA of E. coli 1094 bcsA^HA-FLAG; source: E. coli BL21 (DE3), bcs^HisRQA^HA-FLAGB-pCDF-Duet, co-expressed, detergent-solubilised membranes; purified complex for EM) TPATQPLINAEPAVAAQTEQNPQVGQVMPGVQGADAPVVAQNGPSRDVKLTFAQIAPPPGSMVLRGINPNGSIEFGMRSDEVVTKAMLNLEYTPSPSLLPVQSQLKVYLNDELMGVLPVTKEQLGKKTLAQMPINPLFISDFNRVRLEFVGHYQDVCEKPASTTLWLDVGRSSGLDLTYQTLNVKNDLSHFPVPFFDPSDNRTNTLPMVFAGAPDVGLQQASAIVASWFGSRSGWRGQNFPVLYNQLPDRNAIVFATNDKRPDFLRDHPAVKAPVIEMINHPQNPYVKLLVVFGRDDKDLLQAAKGIAQGNILFRGESVVVNEVKPLLPRKPYDAPNWVRTDRPVTFGELKTYEEQLQSSGLEPAAINVSLNLPPDLYLMRSTGIDMDINYRYTMPPVKDSSRMDISLNNQFLQSFNLSSKQEANRLLLRIPVLQGLLDGKTDVSIPALKLGATNQLRFDFEYMNPMPGGSVDNCITFQPVQNHVVIGDDSTIDFSKYYHFIPMPDLRAFANAGFPFSRMADLSQTITVMPKAPNEAQMETLLNTVGFIGAQTGFPAINLTVTDDGSTIQGKDADIMIIGGIPDKLKDDKQIDLLVQATESWVKTPMRQTPFPGIVPDESDRAAETRSTLTSSGAMAAVIGFQSPYNDQRSVIALLADSPRGYEMLNDAVNDSGKRATMFGSVAVIRESGINSLRVGDVYYVGHLPWFERVWYALANHPILLAVLAAISVILLAWVLWRLLRIISRRRLNPDNE	6	–
BcsB (natural protein, E. coli 1094, UniProt P37652 26-779, looked up, BcsB, E. coli strain 1094, untagged; source: E. coli 1094 bcsA^HA-FLAG 2K7 strain (bcs operons overexpressed from the chromosome), solubilised membranes; purified complex for EM) TPATQPLINAEPAVAAQTEQNPQVGQVMPGVQGADAPVVAQNGPSRDVKLTFAQIAPPPGSMVLRGINPNGSIEFGMRSDEVVTKAMLNLEYTPSPSLLPVQSQLKVYLNDELMGVLPVTKEQLGKKTLAQMPINPLFISDFNRVRLEFVGHYQDVCEKPASTTLWLDVGRSSGLDLTYQTLNVKNDLSHFPVPFFDPSDNRTNTLPMVFAGAPDVGLQQASAIVASWFGSRSGWRGQNFPVLYNQLPDRNAIVFATNDKRPDFLRDHPAVKAPVIEMINHPQNPYVKLLVVFGRDDKDLLQAAKGIAQGNILFRGESVVVNEVKPLLPRKPYDAPNWVRTDRPVTFGELKTYEEQLQSSGLEPAAINVSLNLPPDLYLMRSTGIDMDINYRYTMPPVKDSSRMDISLNNQFLQSFNLSSKQEANRLLLRIPVLQGLLDGKTDVSIPALKLGATNQLRFDFEYMNPMPGGSVDNCITFQPVQNHVVIGDDSTIDFSKYYHFIPMPDLRAFANAGFPFSRMADLSQTITVMPKAPNEAQMETLLNTVGFIGAQTGFPAINLTVTDDGSTIQGKDADIMIIGGIPDKLKDDKQIDLLVQATESWVKTPMRQTPFPGIVPDESDRAAETRSTLTSSGAMAAVIGFQSPYNDQRSVIALLADSPRGYEMLNDAVNDSGKRATMFGSVAVIRESGINSLRVGDVYYVGHLPWFERVWYALANHPILLAVLAAISVILLAWVLWRLLRIISRRRLNPDNE	–	6
